Where only a bound is given, the exact number is not on record here.

Experiment [1] has as its target HCV E2 glycoprotein of genotype 1a (Hepatitis C virus genotype 1a) (UniProt P27958). As to the kind of experiment: cell-based or functional assay.
The target in experiment [2] is human CD81 (human) (UniProt P60033). The experiment can be described thus: cell-based or functional assay.

In experiment [1], “recombinant GST-fusion polypeptide encompassing the large extra-cellular loop (LEL) of human CD81 (from UniProt P60033 113-201)” returned an inhibition of infectivity of HCVpp on Huh-7 cells (hCD81-LEL at 4, 8, 16 µg/ml pre-incubated with the particles) of 38 to 54%. As for “JS-81 anti-CD81 monoclonal antibody (Pharmingen)”, the inhibition of infection by HCVpp of genotypes 1a and 1b after pre-incubation of the target cells with antibody (30 µg/ml) in experiment [2] is > 90%.
